Laboratory results: the supplement of paper PMC9170038

Tested on: MS2 coat protein
Test: apparent KD of MS2 coat protein; designed switch direction (-1 OFF switch, 1 ON switch): -1; higher = weaker reporter binding
How it was run: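 Designed RNA switches with common flanks were transcribed on Illumina chips by stalled E. coli RNA polymerase and titrated with SNAP-549-labelled MS2 coat protein, from 0.7 or 1.5 nM doubling to 3 µM, in Tris-HCl pH 7.5 buffer with KCl, MgCl2, BSA, DTT, tRNA and Tween-20. Steps lasted 0.8–1.5 h (lowest) to 10–20 min (highest). Titrations ran without input, with 200 uM small-molecule ligand, or with an oligonucleotide input. Normalised cluster fluorescence was curve-fitted, and apparent KD is the per-design median over clusters.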

[1] = input ligand: microRNA oligo, concentration not stated
[2] = Eterna round: R95, input ligand: microRNA oligo, concentration not stated
[3] = Eterna round: R95, input ligand: FMN 200 uM
[4] = Eterna round: R95, input ligand: none

| Sequence | apparent KD of MS2 coat protein (input ligand: FMN 200 uM) [nM] | apparent KD of MS2 coat protein [1] [nM] | apparent KD of MS2 coat protein (input ligand: none) [nM] | apparent KD of MS2 coat protein [2] [nM] | also measured |
| --- | --- | --- | --- | --- | --- |
| UUGUUAUAUGUAGGAUAUGCAUGUUAUUAUUAUGCAGAAGGACAUGAGGAUCACCCAUGUGUAUUAUUAUUAUAUAUUAUAUAU [Title] (Eterna round: R96, puzzle: Exclusion NG 1) | 21.2 | 14.1 | 20.1 |  |  |
| UUGUUAUGUGUAGGAUAUGCAUAUUAUUAUUAUGCAGAAGGACAUGAGGAUCACCCAUGUGUAUUAUUAUUAUAUAUUAUAUAU [Title] (Eterna round: R96, puzzle: Exclusion NG 1) |  | 17.2 |  |  |  |
| UUGUUGUAUGUAGGAUAUGCAUAUUAUUAUUAUGCAGAAGGACAUGAGGAUCACCCAUGUAUGUUAUUAUUAUAUGUUAUAUGU [Title] (Eterna round: R96, puzzle: Exclusion NG 1) |  | 25.6 |  |  |  |
| UUGUUGUAUGUAGGAUAUGCAUAUUAUUAUUGUGCAGAAGGACAUGAGGAUCACCCAUGUAUAUUAUUAUUAUAUAUUAUAUAU [Title] (Eterna round: R96, puzzle: Exclusion NG 1) |  | 27.2 |  |  |  |
| UUGUUGUAUGUAGGAUAUGCGUAUUAUUAUUAUGCAGAAGGACAUGAGGAUCACCCAUGUAUAUUAUUAUUAUAUAUUAUAUAU [Title] (Eterna round: R96, puzzle: Exclusion NG 1) |  | 22 |  |  |  |
| UUGUUUGUAGUGAGGAUAUCGUUGAGGAAGAGGAUCGAGAAGGCACAUGAGGAUCACCCAUGUUAGAUGUGGUU [JR_BMOE4_Sub082] (Eterna round: R96, puzzle: Brourd's mod of Exclusion 4) | 261 | 114 | 161 |  |  |
| UUGUUUGUAGUGAGGAUAUCGUUGAGGAAGAGGAUCGAGAAGGCACAUGAGGAUCACCCAUGUUAGAUGUGGUU [JR_BMOE4_Sub082] (puzzle: Brourd's mod of Exclusion 4) |  |  |  | 99.1 |  |
| UUUAAUUUUUUUUUUUUACAAGCUUUUUGCUCGUCUUAUACAUGAGGAUCACCCAUGUGAGUGGGAGGUAAAUUAUC [JMF 77] (puzzle: Sensor v3, turn-off variant 2) |  |  |  | 276 | apparent KD of MS2 coat protein [3]: 57.7 nM; apparent KD of MS2 coat protein [4]: 70 nM |
| UUUAAUUUUUUUUUUUUACAAGCUUUUUGCUCGUCUUAUACAUGAGGAUCACCCAUGUGGAUGGGAGGUAAAUUAUC [JMF 74] (puzzle: Sensor v3, turn-off variant 2) |  |  |  | 153 | apparent KD of MS2 coat protein [3]: 25.4 nM; apparent KD of MS2 coat protein [4]: 25.3 nM |
| UUUAAUUUUUUUUUUUUACAAGCUUUUUGCUCGUCUUAUACAUGAGGAUCACCCAUGUGGGUGAGAGAUAAAUUAUC [JMF 14] (puzzle: Sensor v3, turn-off variant 2) |  |  |  | 17 | apparent KD of MS2 coat protein [3]: 53.2 nM; apparent KD of MS2 coat protein [4]: 64.2 nM |
| UUUACAAGCUAAAGAUCCCACAUGAGGAUCACCCAUGUUCCUGGCCGUGAGGCUAGGUAAACUUUUGCUCGUCUUAU [JL TOV1 3.67] (Eterna round: R97, puzzle: Sensor, turn-off variant 1) | 252 |  | 322 |  |  |
| UUUACAAGCUAUUGAUCCCACAUGAGGAUCACCCAUGUUCCUGGCCGUGAGGCUAGGUAAACAAUAGCUCGUCUUAU [Sensor-V1 #41] (Eterna round: R97, puzzle: Sensor, turn-off variant 1) | 98.4 |  | 95.1 |  |  |
| UUUAGUUCAGGAUAUGUAGAUUUUAACAUGAGGAUCACCCAUGUCGAUCCUGAAUUAACUACAGAAGGGAACAUUU [Mod of Brourd 4 - Jieux - Exclusion 5] (Eterna round: R97, puzzle: Exclusion 5) | 64 |  | 18.8 |  |  |
| UUUAGUUUAGGAUAUGUAGAUUUUAACAUGAGGAUCACCCAUGUAGAUCCUGAAUUAACUACAGAAGGGAGCAUUU [Mod of Brourd 15 - Jieux - Exclusion 5] (Eterna round: R97, puzzle: Exclusion 5) | 70.5 |  | 68.2 |  |  |
| UUUAUAUAUGAAGGAUAUACUUAACAUGAGGAUCACCCAUGUGGUGUUGUGAGUGAGUGAGUUUAGUAGAAGGUCAAUUAUUUU [JMF's solution 27] (Eterna round: R96, puzzle: Exclusion NG 2) | 594 | 237 | 310 |  |  |
| UUUAUGUCAGGAUAUGAGUCGUAGAACAAUAGUACUACGUCUCAGAAGGGACAUGAGGAUCACCCAUGUGCCUC [Fiskers Ex 4 Super Stable 44 mod 26] (puzzle: Exclusion 4) |  |  |  | 35.7 |  |
| UUUAUUAAUUAAUAUAAUAAGAUCACAUGAGGAUCACCCAUGUAGGAUAUCAGCUCGAUUAGAGCUGAGAAGGACAUAAUUAUA [ExNG3/1-B1] (Eterna round: R96, puzzle: Exclusion NG 3) |  | 29.2 |  |  |  |
| UUUAUUAAUUAAUAUAAUAAGAUCACAUGAGGAUCACCCAUGUAGGAUAUCAGCUCGUGUAGAGCUGAGAAGGACAUAAUUAUA [ExNG3/1-B3] (Eterna round: R96, puzzle: Exclusion NG 3) | 108 | 27 | 34.3 |  |  |
| UUUCCCUGGCAAGGAUAUCCUGUGCGGUUCCGGCUCGUGUCUGUUACAUGAGGAUCACCCAUGUGGGAGAAGGUGCCUGUGGCU [Design 91] (Eterna round: R96, puzzle: Exclusion NG 2) |  | 47.4 |  |  |  |

| Sequence | apparent KD of MS2 coat protein (input ligand: FMN 200 uM) [nM] | apparent KD of MS2 coat protein [1] [nM] | apparent KD of MS2 coat protein (input ligand: none) [nM] | apparent KD of MS2 coat protein [2] [nM] | also measured |
| --- | --- | --- | --- | --- | --- |
| UUUCGGCAUGUAGGAUAUGGAUCCGAUUAGGAUUUAGAAGGACAUGAGGAUCACCCAUGUGCAUUUAAUUAGUCAUUACCGUUU [EXclNG1-LROPPY07] (Eterna round: R96, puzzle: Exclusion NG 1) | 79.9 | 42.8 | 67.1 |  |  |
| UUUGAAUAGGUAGGAUAUACUUUCAAUUUUCUUUUCCUUACAUGAGGAUCACCCAUGUUUACAUUGUAGAAGGACCUCAUUGAU [JR_ExcNG2_Sub048] (Eterna round: R96, puzzle: Exclusion NG 2) |  | 193 |  |  |  |
| UUUGCAAGCUUAAGAUCCCACAUGAGGAUCACCCAUGUUGCUGCCGUGAGGUAGCAUUUAACUUAUGCUCGUCUUAU [JL TOV1 3.50] (Eterna round: R97, puzzle: Sensor, turn-off variant 1) | 140 |  | 176 |  |  |
| UUUGUCUGUGUGAGGAUAUACUUUGUUUGGUCGUUGUAGAAGGCACAUGAGGAUCACCCAUGUAUUUUGUUGUG [JR_BME4_Sub015] (puzzle: Brourd's mod of Exclusion 4) |  |  |  | 26.9 |  |
| UUUGUCUGUGUGAGGAUAUACUUUUUUUGGUUUUUGUAGAAGGCACAUGAGGAUCACCCAUGUAUUUUGUUGUG [JR_BME4_Sub016] (puzzle: Brourd's mod of Exclusion 4) |  |  |  | 31.1 |  |
| UUUGUUGUUGUGAGGAUAUCGUUGUUAUUUUGAAACGAGAAGGCACAUGAGGAUCACCCAUGUUUGUUGAUGGU [JR_BMOE4_Sub060] (puzzle: Brourd's mod of Exclusion 4) |  |  |  | 41.5 |  |
| UUUGUUUAUGUAGGAUAUGCCUGGCGUGCCUUCGCAGAAGGACAUGAGGAUCACCCAUGUAUUGCGGUCUGCGUUCAGAUCGCU [salish99_ExNG1_r4_030] (Eterna round: R96, puzzle: Exclusion NG 1) | 46.8 | 29.1 | 41.8 |  |  |
| UUUGUUUAUGUGAGGAUAUACUGUUUGUUUUGUUUGUAGAAGGUACAUGAGGAUCACCCAUGUUUUGUAUUUAU [JR_BME4_Sub034] (puzzle: Brourd's mod of Exclusion 4) |  |  |  | 18.4 |  |
| UUUGUUUUGCAAGGAUAUGUUUAAUUUUAUUUUCCUUACACAUGAGGAUCACCCAUGUUAUUCUUACAGAAGGUGCGUAAUUUG [Excl-NG2-LRO05] (Eterna round: R96, puzzle: Exclusion NG 2) |  | 171 |  |  |  |
| UUUUAAAAGCUGAGAUCCUACAUGAGGAUCACCCAUGUGGUCCGGAAAAUUUUGUCACCGGAUUUUGCUCGUCUUGU [salish99_S_TOV1_R5_103] (Eterna round: R97, puzzle: Sensor, turn-off variant 1) | 102 |  | 114 |  |  |
| UUUUAACAAGCGAGAUCCUACAUGAGGAUCACCCAUGUAGACCAUGGUUUCCAUGGUCUUUUUGCUCGUCUUGUGUG [jl TITIN mod 6] (Eterna round: R97, puzzle: Sensor, turn-off variant 1) | 22.5 |  | 23.3 |  |  |
| UUUUAACAUGAGGAUCACCCAUGUCAGGAUAUGGUAUUUUUUUUUUUUUUUUUUUUUUCCAGAAGGGACAUUUU [My solution] (puzzle: Exclusion 1) |  |  |  | 11.3 | apparent KD of MS2 coat protein [3]: 16.5 nM; apparent KD of MS2 coat protein [4]: 15.9 nM |
| UUUUAACAUGAGGAUCACCCAUGUGAGGAUAUCGAAAUUUAUAUUAAUAUUAAUAAAACGAGAAGGCACAUUUU [JMF 4] (puzzle: Exclusion 1) |  |  |  | 75.1 |  |
| UUUUAACAUGAGGAUCACCCAUGUGAGGAUAUCGAAAUUUAUAUUAAUAUUUAUUAAACGAGAAGGCACAUUUU [JMF 59] (puzzle: Exclusion 1) |  |  |  | 82 |  |
| UUUUAACAUGAGGAUCACCCAUGUGAGGAUAUCGAAAUUUAUAUUAAUAUUUAUUUUACGAGAAGGCACAUUUU [JMF 66] (puzzle: Exclusion 1) |  |  |  | 104 |  |
| UUUUAACAUGAGGAUCACCCAUGUGAGGAUAUCGAAAUUUAUAUUAAUAUUUUUAAAACGAGAAGGCACAUUUU [JMF 67] (puzzle: Exclusion 1) |  |  |  | 53.5 |  |
| UUUUAACAUGAGGAUCACCCAUGUGAGGAUAUCGAAAUUUAUAUUAAUAUUUUUAUAUCGAGAAGGCACAUUUU [JMF 72] (puzzle: Exclusion 1) |  |  |  | 84.7 |  |
| UUUUAACAUGAGGAUCACCCAUGUGAGGAUAUCGAAAUUUAUAUUUAUAUUAAUAAUUCGAGAAGGCACAUUUU [JMF 77] (puzzle: Exclusion 1) |  |  |  | 155 |  |
